The results in this text go back to patent US20230331827A1, “POTASSIUM CHANNEL INHIBITORS” (priority 2017, published 2023).

The target in experiment [1] is human Kv1.3 (human) (UniProt P22001). Briefly: cell-based or functional assay.
In experiment [2] the target is trypsin. Briefly: phage TRF on trypsin.

Sequence of human Kv1.3 (human) (P22001 whole entry): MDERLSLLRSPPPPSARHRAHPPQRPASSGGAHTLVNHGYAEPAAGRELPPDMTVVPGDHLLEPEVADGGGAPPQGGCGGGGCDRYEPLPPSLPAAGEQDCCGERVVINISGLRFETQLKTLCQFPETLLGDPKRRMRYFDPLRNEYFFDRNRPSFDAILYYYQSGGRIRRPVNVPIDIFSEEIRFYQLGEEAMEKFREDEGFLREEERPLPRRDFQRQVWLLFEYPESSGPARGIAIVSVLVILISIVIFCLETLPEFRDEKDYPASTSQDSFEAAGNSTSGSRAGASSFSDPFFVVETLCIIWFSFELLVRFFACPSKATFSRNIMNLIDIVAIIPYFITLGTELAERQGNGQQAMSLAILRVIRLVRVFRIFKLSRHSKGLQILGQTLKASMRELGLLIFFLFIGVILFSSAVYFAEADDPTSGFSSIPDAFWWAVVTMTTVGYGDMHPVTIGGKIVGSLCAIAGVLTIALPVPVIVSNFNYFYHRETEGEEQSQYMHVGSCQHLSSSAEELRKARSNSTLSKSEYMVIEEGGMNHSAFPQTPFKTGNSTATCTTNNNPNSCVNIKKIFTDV

B1: KB_A07_ShK (antibody, V domains shown)
VH: EVQLVESGGGLVRPGGSLRLSCAASGFTFSSYAMSWVRQAPGKGLEWVSAISGSGGSTYYADSVKGRFTISRDNTKNSLYLQMTSLRADDTAFYYCVKDFGPGYGTGWFDYWGPGTLVTVSS
VL: NWYQQKPGKAPKLLIYAAGVRSCIDTIPKSRCTAFQCKHSMKYRLSFCRKTCGTCSRSGVPSRFSGSGSGTDFTLTISSLQPEDFATYYCQQGASPPYTFGQGTKVEIKR
B1: the IC50, huKv1.3 current, QPatch patch clamp in experiment [1] stood at 40 nM.

B2: KB_A03 (scFv on phage) (scFv, V domains shown)
VH: EVQLVESGGGLVRPGGSLRLSCAASGFTFSSYAMSWVRQAPGKGLEWVSAISGSGGSTYYADSVKGRFTISRDNTKNSLYLQMTSLRADDTAFYYCVKDFGPGYGTGWFDYWGPGTLVTVSS
VL: AVNWYQQLPGKAPKLLINAADRCPRILMRCKQDSDCLAGCVCGPNGFCGTNSGVPDRFSGSSSGNTASLTITGAQAEDEADYYCNSRDSSGNNWVFGGGTKVTVLG
As to B2, the Tryspin binding signal (FU) in experiment [2] amounted to 28700 FU.

B3: KB_A05 (scFv on phage) (scFv, V domains shown)
VH: EVQLVESGGGLVRPGGSLRLSCAASGFTFSSYAMSWVRQAPGKGLEWVSAISGSGGSTYYADSVKGRFTISRDNTKNSLYLQMTSLRADDTAFYYCVKDFGPGYGTGWFDYWGPGTLVTVSS
VL: AVNWYQQLPGKAPKLLIYAADKCPRILMRCKQDSDCLAGCVCGPNGFCGGGSGIPERFSGSKSGTSASLAISGLRSEDEADYYCATWDDNLNGVVFGGGTKLTVLG
B3 displayed a Tryspin binding signal (FU) in experiment [2] of 121000 FU.

B4: KB_C10 (scFv on phage) (scFv, V domains shown)
VH: EVQLVESGGGLVRPGGSLRLSCAASGFTFSSYAMSWVRQAPGKGLEWVSAISGSGGSTYYADSVKGRFTISRDNTKNSLYLQMTSLRADDTAFYYCVKDFGPGYGTGWFDYWGPGTLVTVSS
VL: AVNWYQQLPGKAPKLLIYAAGPCPRILMRCKQDSDCLAGCVCGPNGFCGADSGVSDRFSGSKSGTSASLAITGLQAEDEGDYYCAAWDDSLNGLVFGGGTKVTVLG
As to B4, in experiment [2], the Tryspin binding signal (FU) worked out at 119000 FU.

B5: KB_A07_MoKa-1 (antibody, V domains shown)
VH: EVQLVESGGGLVRPGGSLRLSCAASGFTFSSYAMSWVRQAPGKGLEWVSAISGSGGSTYYADSVKGRFTISRDNTKNSLYLQMTSLRADDTAFYYCVKDFGPGYGTGWFDYWGPGTLVTVSS
VL: DIQMTQSPSSLSASVGDRVTITCRASQSISSYLNWYQQKPGKAPKLLIYAAGVINVKCSLPQQCIKPCKDAGMRFGKCMNKKCRCYSSRSGVPSRFSGSGSGTDFTLTISSLQPEDFATYYCQQGASPPYTFGQGTKVEIKRT
As to B5, the IC50, huKv1.3 current, QPatch patch clamp in experiment [1] is above 10000 nM.

B6: KB_A09 (scFv on phage) (scFv, V domains shown)
VH: EVQLVESGGGLVRPGGSLRLSCAASGFTFSSYAMSWVRQAPGKGLEWVSAISGSGGSTYYADSVKGRFTISRDNTKNSLYLQMTSLRADDTAFYYCVKDFGPGYGTGWFDYWGPGTLVTVSS
VL: AVNWYQQLPGKAPKLLIYAAERCPRILMRCKQDSDCLAGCVCGPNGFCGTPSGVPDRFSGSIDTFSNSASLTISGLKTEDEADYYCQSYDSSHHWVFGGGTKLTVLG
In experiment [2], B6 showed a Tryspin binding signal (FU) of 57700 FU.

B7: KB_B12 (scFv on phage) (scFv, V domains shown)
VH: EVQLVESGGGLVRPGGSLRLSCAASGFTFSSYAMSWVRQAPGKGLEWVSAISGSGGSTYYADSVKGRFTISRDNTKNSLYLQMTSLRADDTAFYYCVKDFGPGYGTGWFDYWGPGTLVTVSS
VL: TQPPSVSEAPRQRVTITCGERPCPRILMRCKQDSDCLAGCVCGPNGFCGANNWYQQLPGSSPTTVIYEDNQRPSGVPDRFSGSIDSSSNSASLTISGLKTEDEADYYCQSYDSSNQVFGGGTKVTVLG
Regarding B7, the Tryspin binding signal (FU) in experiment [2] was found to be 17400 FU.

B8: KB_A11 (scFv on phage) (scFv, V domains shown)
VH: EVQLVESGGGLVRPGGSLRLSCAASGFTFSSYAMSWVRQAPGKGLEWVSAISGSGGSTYYADSVKGRFTISRDNTKNSLYLQMTSLRADDTAFYYCVKDFGPGYGTGWFDYWGPGTLVTVSS
VL: YLNWYQQKPGKAPKLLIYAAEICPRILMRCKQDSDCLAGCVCGPNGFCGPSSGIPARFSGSGYGTDFTLTINNIESEDAAYYFCLQHDNFPYTFGQGTKVEIKR
The molecule B8 displayed a Tryspin binding signal (FU) in experiment [2] of 16400 FU.

B9: KB_A01 (scFv on phage) (scFv, V domains shown)
VH: EVQLVESGGGLVRPGGSLRLSCAASGFTFSSYAMSWVRQAPGKGLEWVSAISGSGGSTYYADSVKGRFTISRDNTKNSLYLQMTSLRADDTAFYYCVKDFGPGYGTGWFDYWGPGTLVTVSS
VL: YLNWYQQKPGKAPKLLIYAAEVCPRILMRCKQDSDCLAGCVCGPNGFCGGTSGVPSRFSGSRSGTEFTLTISSLQPEDFATYYCQKVDDYPLTFGGGTKVEIKR
Take B9: the Tryspin binding signal (FU) in experiment [2] stood at 20200 FU.

B10: KB_C07 (scFv on phage) (scFv, V domains shown)
VH: EVQLVESGGGLVRPGGSLRLSCAASGFTFSSYAMSWVRQAPGKGLEWVSAISGSGGSTYYADSVKGRFTISRDNTKNSLYLQMTSLRADDTAFYYCVKDFGPGYGTGWFDYWGPGTLVTVSS
VL: AVNWYQQLPGKAPKLLIYAAVGCPRILMRCKQDSDCLAGCVCGPNGFCGSASGVSDRFSGSKSGTSASLAISGLRSEDEADYYCASWDDSLRGYVFGTGTKVTVLG
The molecule B10 had a Tryspin binding signal (FU) in experiment [2] of 43300 FU.

B11: KB_A06 (scFv on phage) (scFv, V domains shown)
VH: EVQLVESGGGLVRPGGSLRLSCAASGFTFSSYAMSWVRQAPGKGLEWVSAISGSGGSTYYADSVKGRFTISRDNTKNSLYLQMTSLRADDTAFYYCVKDFGPGYGTGWFDYWGPGTLVTVSS
VL: AVNWYQQLPGKAPKLLIYAAVRCPRILMRCKQDSDCLAGCVCGPNGFCGTPSGIPERFSGSIDRSTNSASLTISGLKTEDEADYYCQSYDSSNLNWVFGGGTKLTVLG
For B11, in experiment [2], the Tryspin binding signal (FU) was found to be 24400 FU.

B12: KB_B02 (scFv on phage) (scFv, V domains shown)
VH: EVQLVESGGGLVRPGGSLRLSCAASGFTFSSYAMSWVRQAPGKGLEWVSAISGSGGSTYYADSVKGRFTISRDNTKNSLYLQMTSLRADDTAFYYCVKDFGPGYGTGWFDYWGPGTLVTVSS
VL: AVNWYQQLPGKAPKLLIYAAVGCPRILMRCKQDSDCLAGCVCGPNGFCGTGSGIPERFSGSKSGNTASLTISGLQAEDEGDYYCAAWDDSLSGPVFGGGTKLTVLG
Turning to B12, the Tryspin binding signal (FU) in experiment [2] came to 116000 FU.

B13: KB_C08 (scFv on phage) (scFv, V domains shown)
VH: EVQLVESGGGLVRPGGSLRLSCAASGFTFSSYAMSWVRQAPGKGLEWVSAISGSGGSTYYADSVKGRFTISRDNTKNSLYLQMTSLRADDTAFYYCVKDFGPGYGTGWFDYWGPGTLVTVSS
VL: AVNWYQQLPGKAPKLLIYAAAVCPRILMRCKQDSDCLAGCVCGPNGFCGTRSGIPERFSGSKSGTSAFLAISGLRSEDEADYYCAAWDDSLSGVVFGGGTKLTVLG
Molecule B13 yielded a Tryspin binding signal (FU) in experiment [2] of 76800 FU.

B14: KB_A07_KTX (antibody, V domains shown)
VH: EVQLVESGGGLVRPGGSLRLSCAASGFTFSSYAMSWVRQAPGKGLEWVSAISGSGGSTYYADSVKGRFTISRDNTKNSLYLQMTSLRADDTAFYYCVKDFGPGYGTGWFDYWGPGTLVTVSS
VL: DIQMTQSPSSLSASVGDRVTITCRASQSISSYLNWYQQKPGKAPKLLIYAAGVGVEINVKCSGSPQCLKPCKDAGMRFGKCMNRKCHCTPKSRSGVPSRFSGSGSGTDFTLTISSLQPEDFATYYCQQGASPPYTFGQGTKVEIKR
B14 showed an IC50, huKv1.3 current, QPatch patch clamp in experiment [1] of 900 nM.

B15: KB_A10 (scFv on phage) (scFv, V domains shown)
VH: EVQLVESGGGLVRPGGSLRLSCAASGFTFSSYAMSWVRQAPGKGLEWVSAISGSGGSTYYADSVKGRFTISRDNTKNSLYLQMTSLRADDTAFYYCVKDFGPGYGTGWFDYWGPGTLVTVSS
VL: AVNWYQQLPGKAPKLLIYAAGGCPRILMRCKQDSDCLAGCVCGPNGFCGSNSGVPDRFSGSKSGNTASLTISGLQSEDEADYYCAAWDDSLSGVVFGGGTQLTVLG
B15 displayed a Tryspin binding signal (FU) in experiment [2] of 38800 FU.

B16: KB_C09 (scFv on phage) (scFv, V domains shown)
VH: EVQLVESGGGLVRPGGSLRLSCAASGFTFSSYAMSWVRQAPGKGLEWVSAISGSGGSTYYADSVKGRFTISRDNTKNSLYLQMTSLRADDTAFYYCVKDFGPGYGTGWFDYWGPGTLVTVSS
VL: AVNWYQQLPGKAPKLLIYAAGRCPRILMRCKQDSDCLAGCVCGPNGFCGGGSGVPDRFSGSIDSSSNSASLTISGLRAEDEADYYCQSYDSSNHWVFGGGTKLTVLG
Take B16: in experiment [2], the Tryspin binding signal (FU) was determined as 89400 FU.

B17: KB_B11 (scFv on phage) (scFv, V domains shown)
VH: EVQLVESGGGLVRPGGSLRLSCAASGFTFSSYAMSWVRQAPGKGLEWVSAISGSGGSTYYADSVKGRFTISRDNTKNSLYLQMTSLRADDTAFYYCVKDFGPGYGTGWFDYWGPGTLVTVSS
VL: TQPPSVSEAPRQRVTITCGSRPCPRILMRCKQDSDCLAGCVCGPNGFCGSHNWYQQLPGSSPTTVIYEDNQRPSGVPDRFSGSIDRSSNSASLTISGLKTEDEADYYCQSYDSSNHRVVFGGGTKLTVLG
With B17, the Tryspin binding signal (FU) in experiment [2] turned out to be 10300 FU.

B18: KB_B10 (scFv on phage) (scFv, V domains shown)
VH: EVQLVESGGGLVRPGGSLRLSCAASGFTFSSYAMSWVRQAPGKGLEWVSAISGSGGSTYYADSVKGRFTISRDNTKNSLYLQMTSLRADDTAFYYCVKDFGPGYGTGWFDYWGPGTLVTVSS
VL: QSVLTQLPSVSEAPRQRVTITCGRAMCPRILMRCKQDSDCLAGCVCGPNGFCGTGNWYQQHPGKAPKLIIFDVSKRPSGVPDRFSASKSGNTASLTISGLQAEDEADYYCNSYTSSNTWVFGGGTQLTVLG
In experiment [2], B18 returned a Tryspin binding signal (FU) of 9270 FU.

B19: KB_B01 (scFv on phage) (scFv, V domains shown)
VH: EVQLVESGGGLVRPGGSLRLSCAASGFTFSSYAMSWVRQAPGKGLEWVSAISGSGGSTYYADSVKGRFTISRDNTKNSLYLQMTSLRADDTAFYYCVKDFGPGYGTGWFDYWGPGTLVTVSS
VL: AVNWYQQLPGKAPKLLIYAAAGCPRILMRCKQDSDCLAGCVCGPNGFCGTRSGVSDRFSGSKSGTSASLAISGLRSEDEADYYCAAWDDSLRAYVFGTGTKLTVLG
B19 came in with a Tryspin binding signal (FU) in experiment [2] of 57700 FU.

B20: KB_A02 (scFv on phage) (scFv, V domains shown)
VH: EVQLVESGGGLVRPGGSLRLSCAASGFTFSSYAMSWVRQAPGKGLEWVSAISGSGGSTYYADSVKGRFTISRDNTKNSLYLQMTSLRADDTAFYYCVKDFGPGYGTGWFDYWGPGTLVTVSS
VL: AVNWYQQLPGKAPKLLIYAAAKCPRILMRCKQDSDCLAGCVCGPNGFCGGASGVSDRFSGSIDSSSNSASLTISGLKPEDEGDYYCQSYDSSNRWVFGGGTKVTVLG
Take B20: in experiment [2], the Tryspin binding signal (FU) was found to be 183000 FU.
